Measured values as given in PMC5870375, “Amyloid-beta modulates microglial responses by binding to the triggering receptor expressed on myeloid cells 2 (TREM2)” (Molecular Neurodegeneration, 2018).

Biological target: T1, oligomeric amyloid-β 1–42 (UniProt P05067 672-713)
T1 construct: amyloid-beta 1-42, cut product of the amyloid precursor protein (APP); numbers count on: the Aβ peptide; Heterogeneous mixture of low-n and high-n oligomers, prepared without separation of monomeric Aβ; also called oAβ_(1–42); oAβ; source: synthetic peptide, bought: AnaSpec (AS-20276); oligomers made by incubation at 22 °C for 16 h, then 4 °C for 24 h, supernatant after 16,000×g
Assay: ELISA; solid phase binding assay: 96-well plate coated with 100 nM oAβ1-42 in PBS overnight at 4 °C, blocked with 4% BSA; purified Fc or sTREM2-Fc proteins in PBST with 0.5% BSA, 30 min at 37 °C; detected with biotinylated anti-Fc antibody, avidin-HRP, TMB, read at 620 nm
Settings: both partners purified

binding result | Binder
binds | sTREM2-Fc fragment carrying residues 1–151 (Fc fusion, human, UniProt Q9NZC2 19-151, looked up, signal peptide in the construct; human TREM2, C-terminally truncated extracellular domain, residues 1-151) HNTTVFQGVAGQSLQVSCPYDSMKHWGRRKAWCRQLGEKGPCQRVVSTHNLWLLSFLRRWNGSTAITDDTLGGTLTITLRNLQPHDAGLYQCQSLHGSEADTLRKVLVEVLADPLDHRDAGDLWFPGESESFE
binds | HNTTVFQGVAGQSLQVSCPYDSMKHWGRRKAWC (Fc fusion, human, UniProt Q9NZC2 19-51, looked up, signal peptide in the construct; human TREM2, C-terminally truncated extracellular domain, residues 1-51) [sTREM2-Fc fragment carrying residues 1–51]
binds | sTREM2-Fc fragment carrying residues 1–71 (Fc fusion, human, UniProt Q9NZC2 19-71, looked up, signal peptide in the construct; human TREM2, C-terminally truncated extracellular domain, residues 1-71) HNTTVFQGVAGQSLQVSCPYDSMKHWGRRKAWCRQLGEKGPCQRVVSTHNLWL
binds | sTREM2-Fc fragment carrying residues 1–91 (Fc fusion, human, UniProt Q9NZC2 19-91, looked up, signal peptide in the construct; human TREM2, C-terminally truncated extracellular domain, residues 1-91) HNTTVFQGVAGQSLQVSCPYDSMKHWGRRKAWCRQLGEKGPCQRVVSTHNLWLLSFLRRWNGSTAITDDTLGG
binds | sTREM2-Fc fragment carrying residues 1–111 (Fc fusion, human, UniProt Q9NZC2 19-111, looked up, signal peptide in the construct) HNTTVFQGVAGQSLQVSCPYDSMKHWGRRKAWCRQLGEKGPCQRVVSTHNLWLLSFLRRWNGSTAITDDTLGGTLTITLRNLQPHDAGLYQCQ
binds | sTREM2-Fc fragment carrying residues 1–131 (Fc fusion, human, UniProt Q9NZC2 19-131, looked up, signal peptide in the construct) HNTTVFQGVAGQSLQVSCPYDSMKHWGRRKAWCRQLGEKGPCQRVVSTHNLWLLSFLRRWNGSTAITDDTLGGTLTITLRNLQPHDAGLYQCQSLHGSEADTLRKVLVEVLAD
